# The RNAGym collection of RNA variant scans (doi:10.7554/elife.90254)
# B1: OR4K15 (parent)
# chain: GUUAACGGUCAUAGGCCAUGGAAACUAGGAGCACCAUUUCGCUGCCAGUGAAGAAAUGAACAAAGAAAAUCUGGGCCAGGCAGGCAUCAAAAGAAAUAGUCUUGCGCUCAACCAGAAAGUCUGUAAUCAUUUUAAGGGUA
# Variants of: B1
# Assay: self-cleavage, relative activity (ratio to wild type); higher = more cleavage; in vitro, sequencing; the parent is a self-cleaving ribozyme
row,Variant,self-cleavage
1,C16G A69G,1.02
2,U57C U122A,1.35
3,A67G A114G,0.49
4,A62U U72C,0.19
5,C6U G80A,0.22
6,U9C U108C,0.02
7,U9C G83A,2.33
8,A86U U100C,2.52
9,A64C U103C,0.24
10,A98G A110U,0.31
11,A68G U130C,1.13
12,U122C U124C,0.67
13,U97A C101U,0.49
14,C81U A96G,0.43
15,C85A A125G,0.72
16,C77A A96G,1
17,U100C U102A,2.36
18,G79C,0.08
19,A63G C128U,1.95
20,U39A A51U,1.74
21,A54G A69G,1.1
22,U49A A69U,1.92
23,G58A A67G,0.36
24,A23G A134U,0.77

row,Variant,self-cleavage
1,A78G U108A,0.03
2,A66G A68C,1.13
3,C46U A62U,1.83
4,A56G A86U,1.67
5,A78G G137U,0.25
6,A62U A64U,1.06
7,A22G G136A,0.6
8,A22G U139C,1.24
9,U72C A140G,0.34
10,U9G A135U,0.85
11,U3C G28U,2.64
12,A90U U122C,2.2
13,A24C A91G,1.24
14,A52G U122C,1.45
15,A56G A111G,0.01
16,U97A U132A,2.62
17,A98U G104A,0.12
18,U2A A60G,1.13
19,U3C C25U,1.05
20,A60G A95C,1
21,G58U U120A,1.17
22,U70A U132C,0.6
23,A11U A51C,1.16
24,C61U A140G,1.73

row,Variant,self-cleavage
1,G79C U120A,0.04
2,U39C C77U,1.75
3,U9C,1.61
4,A27U U132A,1.42
5,A67G A116U,0.14
6,U124A U132C,0.13
7,A54G G123A,1.14
8,A4G U38C,1.15
9,A30G A91G,0.24
10,A33G C81U,0.17
11,A63G A129U,0.61
12,A63G A129G,0.9
13,G31C U133C,1.95
14,G21U A90G,1.16
15,U2C A5U,1.16
16,C32U C45G,1.23
17,A111U A126C,0.06
18,C6A U49C,0.74
19,A11U A78C,0.22
20,G21A A94G,1.81
21,A52U U103C,1.36
22,U38C U72A,0.11
23,U39C A95G,1.53
24,A89G A95G,1.87

row,Variant,self-cleavage
1,A22G A110U,0.8
2,U100C A135G,1.74
3,A63G A118G,0.83
4,A96G U133C,1.82
5,A56G A59G,1.2
6,U2A A62G,1.23
7,A52G A111C,0
8,U43G U49C,2.01
9,A33G A64C,1.17
10,A36G U72C,0.14
11,U49A A114G,0.25
12,A92G U132C,1.35
13,A5U U127C,1.03
14,A30C A96G,1.43
15,A33U U87C,1.74
16,A24U A91G,1.09
17,U38C A118G,1.14
18,A27G U49C,2.01
19,A30U A118G,1.45
20,A23G A129C,0.82
21,A56G G74U,0.14
22,A96G G137U,1.8
23,U130C A134G,0.27
24,A22G A94C,1.21

row,Variant,self-cleavage
1,C17U U87C,0.7
2,A89C A126U,0.86
3,C109A,0.38
4,A86C U132C,0.9
5,A24G U103C,0.32
6,A82G G123A,0.75
7,U19A U102C,1.65
8,A78G A135G,0.19
9,U43A U87A,1.94
10,U103C A114U,0.04
11,U26C A114U,0.07
12,A140C,1.4
13,A68G G123A,1.45
14,A18G U70C,0.57
15,A89G U100G,2.03
16,A62G A82U,0.25
17,A33U A129U,1.42
18,U87A A126G,1.66
19,U12C C45U,1.85
20,A64G A86G,1.15
21,U2G A78U,0.4
22,U49A A95G,1.76
23,U57A U132A,0.7
24,A60G A94G,1.37

row,Variant,self-cleavage
1,C81U U103A,0.1
2,A47G U127A,1.33
3,A27G U72C,0.38
4,G29A A54G,1.96
5,G75A A125G,0.03
6,C25U A111G,0.09
7,A56G U57A,1.53
8,A24C G123A,1.91
9,A51G U133G,1.24
10,U130C U133C,1.54
11,A13G U57C,1.18
12,G14A A114U,0.01
13,A92G U124C,1
14,U38C U127G,1.17
15,A52G A110G,0.17
16,G1A U43C,2.15
17,G14U A90G,1.34
18,G44A A63G,0.71
19,A54G U120C,0.3
20,G1A A114U,0.26
21,A51G A96U,0.46
22,C77U G79U,0.13
23,A11U A52U,1.54
24,U3C A126U,0.79

row,Variant,self-cleavage
1,U87C A90G,0.3
2,U57G U127C,1.33
3,A13G A118G,0.96
4,U37C C76U,0.06
5,A11G U38C,0.65
6,U3G A59G,0.68
7,C45U U103C,0.54
8,U57C U120C,0.41
9,U87C C109U,0.43
10,C112U U122A,0.01
11,U97C U122G,2.57
12,U70C A82U,0.37
13,G21A A30G,1.51
14,A11G U102C,1.41
15,A47G G58C,0.97
16,A30G A47U,1.27
17,A66U A89C,0.99
18,C107U C121U,0.01
19,U70G A118G,0.55
20,C25G A118G,0.35
21,U9C U57A,1.6
22,U39C C71A,0.38
23,U49A U87C,0.22
24,A92G A135G,1.48

row,Variant,self-cleavage
1,A90G A140G,0.65
2,A52U A129G,0.81
3,U127G,1.32
4,A92U G104A,0.01
5,C76A A117G,0.18
6,A64G A135G,1.7
7,C109U A125G,0.17
8,G21U U122A,1.42
9,A68G U124A,0.95
10,A94C A116C,0.25
11,U39A A52G,1.21
12,U72C,0.12
13,A54U A125G,0.83
14,A68G A86U,1.51
15,U37C A140G,1.24
16,A67G U122G,2.16
17,U19A U100C,1.68
18,U37G A59G,0.71
19,A51G U131C,1.25
20,A62G U133A,1.51
21,C32A C128A,0.81
22,A67G A126G,1.21
23,A69U A78C,0.31
24,G15A A36U,1.01

row,Variant,self-cleavage
1,A24G U124A,0.74
2,A47U U131C,0.54
3,U37G U131C,1.37
4,U39A U133C,1.76
5,A36U U72C,0.32
6,U37G A91G,1.82
7,A54G U127C,1.07
8,U2A A117G,0.59
9,A52G C112U,0.01
10,G21A A125G,0.73
11,A30G A91U,1.67
12,U2C U103A,0.62
13,A55G C109U,0.82
14,U2G A96U,0.84
15,U2G A56G,1.23
16,A18U G58A,1.09
17,A110U U124A,0.9
18,C16G A59U,1.17
19,U38C U122C,0.8
20,A63G C88U,1.69
21,C6U U132A,0.56
22,A23G U87C,0.61
23,U57A U127C,0.65
24,A22U A89G,1.31

row,Variant,self-cleavage
1,C42U A129G,1.47
2,U37C U100A,0.52
3,C46U U122A,1.22
4,U2C U97C,0.55
5,A56G A89U,1.09
6,A55U A114G,0.21
7,A11G A66U,1.45
8,A13U U124C,1.37
9,U102A U122C,0.55
10,A18C U87C,0.67
11,C17G U39A,1.07
12,G41A U87A,1.71
13,A13G G41C,1.02
14,A54C,1.41
15,U12A U122C,1.26
16,A98G U131C,0.49
17,U9A A18G,1.79
18,A13U A64G,1.04
19,A13G A23U,1.32
20,C61U A89G,1.62
21,A67G A69C,1.68
22,G31A U38C,1.93
23,U3C A69G,1.6
24,C10A U38A,0.81

row,Variant,self-cleavage
1,A67U U131C,2.18
2,A82C A98G,0.09
3,U57C A86U,1.93
4,A47G C112U,0.01
5,A68G U127G,1.35
6,A55C A126G,1.09
7,A11C U124C,1.12
8,A22G U127C,0.43
9,G65A A140G,2.16
10,C45U U108A,0.01
11,A96G U108C,0.01
12,C35U U131C,0.58
13,A63G A86G,1.47
14,G50U A114U,0.08
15,A33U U100C,1.84
16,A89U,1.65
17,A92G A126U,0.78
18,A24U A90G,1.63
19,A68G U100A,0.24
20,A111U A129G,0.19
21,A47G A125U,1.01
22,U72A C101A,0.04
23,A30U A129G,1.24
24,A27C A69G,1.34

row,Variant,self-cleavage
1,A52U A94G,1.52
2,A117U U133C,1.23
3,G7A A18G,0.64
4,A5G A47C,1.22
5,A30U U102C,1.81
6,A78C U87C,0.27
7,A117G U120C,0.23
8,A27U A52G,1.91
9,A55G U130A,0.52
10,A78U A117G,0.36
11,A24G A95G,1.71
12,A5C U108A,0.07
13,G99U A117G,0.36
14,A13G A54U,0.74
15,A117U U131C,1.01
16,U87A A92G,2.61
17,C45U A129G,1.16
18,U19A A91G,1.06
19,A69G U124A,0.53
20,A30U A140G,0.96
21,A63G A125G,0.64
22,A86G A116G,0.79
23,C6A C10U,0.25
24,A60U,1.29

row,Variant,self-cleavage
1,A11U A111U,0.06
2,A24G A110C,0.55
3,A66G U130A,0.6
4,A89U A129C,0.68
5,U102A A110G,0.1
6,A23G A135G,1.13
7,A91C U132C,2.49
8,A59G U97C,0.82
9,A11G A51G,1.15
10,A55G U124C,0.5
11,U37A A96G,2.31
12,A5U U43C,1.2
13,G28A U130C,1.2
14,A33U A111G,0.03
15,A27G A63G,1.49
16,U49C G119A,1.6
17,A86G A96G,0.71
18,A63G U108C,0.02
19,U12A A91U,1.64
20,U9C G84A,1.54
21,U97A U108C,0.01
22,U26G A63G,2.09
23,A55G A129U,1.43
24,A30G C109A,0.23

row,Variant,self-cleavage
1,A5U A66G,1.27
2,A36U A111G,0.02
3,A24G A135U,1.33
4,G28U,0.74
5,A116U A134U,0.33
6,C16U A82U,0.21
7,C32U U124A,0.41
8,A18G A117U,1.01
9,A92U U127A,1.77
10,A95G G115A,0.19
11,A24C A51U,1.33
12,U19C A66G,1.62
13,A5C A134U,2.1
14,U12C A69G,1.68
15,A63G U122C,1.16
16,U9C A54G,1.53
17,C6U C77U,0.34
18,A69U U108C,0.02
19,A54U U127C,0.18
20,C16G A86G,0.51
21,A4G A96G,1.4
22,U2C C10A,1.94
